Legend:
[1] = target: T1, human Claudin-18.2 (CLDN18.2) (human); test: FACS, 1.5 ug antibody, HUPT4 cells (endogenous CLDN18.2)
T1 construct: On cells: fused to GFP in engineered HEK293T cells (clone C12), endogenous in HUPT4 and SNU601 cells; also called human CLDN18.2
Protocol: FACS assays were carried out to determine relative antigen binding strengths of the humanized antibodies (at either 1.5 μg or 0.3 μg) for binding to CLDN18.2 as expressed by the indicated cancer cell lines.

[2] = target: T1, human Claudin-18.2 (CLDN18.2); test: FACS, 1.5 ug antibody, HEK293T-CLDN18.2 C12 clone cells

Row | Binder | FACS signal (relative antigen binding strength) [1] | FACS signal (relative antigen binding strength) [2]
1 | Ab 307 (antibody, V domains shown) VH: DVKLVESGGGLVKPGGSLKLSCAASGFTFSSYTMSWVRQTPEKRLEWVATIIIGGSYTYYPDSVKGRFTISRDNAKNTLYLQMSSLKSEDTAMYYCTRLVKGNAMDYWGQGTSVAVSS VL: DIVMTQSPSSLTVTTGEKVTMSCKSSQSLLNSGNQKNYLSWYQQIPGQPPKLLFYWASTRESGVPDRFTGSGSGTDFTLTISNVQAEDLAVYYCQNDYSYPFTFGAGTKLELR | 34700 | 141000
2 | Zolbetuximab (Benchmark 3) (antibody, V domains shown, also called zoletuximab) VH: QVQLQQPGAELVRPGASVKLSCKASGYTFTSYWINWVKQRPGQGLEWIGNIYPSDSYTNYNQKFKDKATLTVDKSSSTAYMQLSSPTSEDSAVYYCTRSWRGNSFDYWGQGTTLTVSS VL: DIVMTQSPSSLTVTAGEKVTMSCKSSQSLLNSGNQKNYLTWYQQKPGQPPKLLIYWASTRESGVPDRFTGSGSGTDFTLTISSVQAEDLAVYYCQNDYSYPFTFGSGTKLEIK | 10600 | 109000
3 | HuAb307-1 (antibody, V domains shown) VH: EVQLLESGGGLVQPGGSLRLSCAASGFTFSSYTMSWVRQAPGKGLEWVATIIIGGSYTYYADSVKGRFTISRDNSKNTLYLQMNSLRAEDTAVYYCTRLVKGNAMDYWGQGTLVTVSS VL: DIVMTQSPDSLAVSLGERATINCKSSQSLLNSGNQKNYLSWYQQKPGQPPKLLIYWASTRESGVPDRFSGSGSGTDFTLTISSLQAEDVAVYYCQNDYSYPFTFGQGTKLEIK | 30200 | 126000
4 | HuAb432-1 (antibody, V domains shown) VH: QVQLVQSGAEVKKPGSSVKVSCKASGYTFTSDVISWVRQAPGQGLEWMGESYLRNGNTYYAQKFQGRVTITADKSTSTAYMELSSLRSEDTAVYYCARSYYGNSFAYWGQGTLVTVSS VL: DIVMTQSPDSLAVSLGERATINCKSTQSLLNSGNQKNYLTWYQQKPGQPPKLLIYWASTRESGVPDRFSGSGSGTDFTLTISSLQAEDVAVYYCQNAYYYPFTFGQGTKLEIK | 30600 | 97400
5 | HuAb360-3 (antibody, V domains shown) VH: QVQLVQSGAEVKKPGASVKMSCKASGYTFTSYLMHWVRQAPGQGLEWIGYINPYNDGTNYAQKFQGRATLTSDTSTSTAYMELSSLRSEDTAVYYCTRGDYWGQGTLVTVSS VL: DIVMTQSPDSLAVSLGERATINCKSSQSLLNSGNQKNYLTWYQQKPGQPPKLLIYWASIRQSGVPDRFSGSGSGTDFTLTISSLQAEDVAVYYCLNDYGFPLTFGQGTKLEIK | 27400 | 157000
6 | HuAb358-2 (antibody, V domains shown) VH: EVQLVESGGGLVQPGGSLRLSCAVSGFTFSSFGMHWVRQAPGKGLEWVAYISSGTTNIYYADSVKGRFTVSRDNAKNSLYLQMNSLRAEDTAVYYCVRSGYYGNSLDYWGQGTLVTVSS VL: DIVMTQSPDSLAVSLGERVTMNCKSSQSLFNSGNQRNYLTWYQQKPGQPPKLLIYWASTRESGVPDRFSGSGSGTDFTLTISSVQAEDVAVYYCQNVYIYPLTFGQGTKLEIK | 29800 | 122000
7 | HuAb432-2 (antibody, V domains shown) VH: QVQLVQSGAEVKKPGSSVKVSCKASGYTFTSDVISWVRQAPGQGLEWMGESYLRNGNTYYAQKFQGRVTITADKSTSTAYMELSSLRSEDTAVYYCARSYYGNSFAYWGQGTLVTVSS VL: DIVMTQSPDSLAVSLGERVTMNCKSTQSLLNSGNQKNYLTWYQQKPGQPPKLLIYWASTRESGVPDRFSGSGSGTDFTLTISSVQAEDVAVYYCQNAYYYPFTFGQGTKLEIK | 36100 | 128000
8 | HuAb360-2 (antibody, V domains shown) VH: QVQLVQSGAEVKKPGASVKVSCKASGYTFTSYLMHWVRQAPGQGLEWIGYINPYNDGTNYAQKFQGRVTMTSDTSTSTVYMELSSLRSEDTAVYYCTRGDYWGQGTLVTVSS VL: DIVMTQSPDSLAVSLGERVTMNCKSSQSLLNSGNQKNYLTWYQQKPGQPPKLLIYWASIRQSGVPDRFSGSGSGTDFTLTISSVQAEDVAVYYCLNDYGFPLTFGQGTKLEIK | 24900 | 138000
9 | HuAb307-2 (antibody, V domains shown) VH: EVQLLESGGGLVQPGGSLRLSCAASGFTFSSYTMSWVRQAPGKGLEWVATIIIGGSYTYYADSVKGRFTISRDNSKNTLYLQMNSLRAEDTAVYYCTRLVKGNAMDYWGQGTLVTVSS VL: DIVMTQSPDSLAVSLGERATINCKSSQSLLNSGNQKNYLSWYQQKPGQPPKLLFYWASTRESGVPDRFSGSGSGTDFTLTISSLQAEDVAVYYCQNDYSYPFTFGQGTKLEIK | 32500 | 133000
10 | HuAb360-4 (antibody, V domains shown) VH: QVQLVQSGAEVKKPGASVKMSCKASGYTFTSYLMHWVRQAPGQGLEWIGYINPYNDGTNYAQKFQGRATLTSDTSTSTAYMELSSLRSEDTAVYYCTRGDYWGQGTLVTVSS VL: DIVMTQSPDSLAVSLGERVTMNCKSSQSLLNSGNQKNYLTWYQQKPGQPPKLLIYWASIRQSGVPDRFSGSGSGTDFTLTISSVQAEDVAVYYCLNDYGFPLTFGQGTKLEIK | 28000 | 149000
11 | HuAb432-3 (antibody, V domains shown) VH: QVQLVQSGAEVKKPGSSVKLSCKASGYTFTSDVISWVRQAPGQGLEWIGESYLRNGNTYYAQKFQGRATLTADKSTSTAYMELSSLRSEDTAVYYCARSYYGNSFAYWGQGTLVTVSS VL: DIVMTQSPDSLAVSLGERATINCKSTQSLLNSGNQKNYLTWYQQKPGQPPKLLIYWASTRESGVPDRFSGSGSGTDFTLTISSLQAEDVAVYYCQNAYYYPFTFGQGTKLEIK | 27100 | 88800

Second part, the binder after the results:

Row | FACS signal (relative antigen binding strength) [1] | FACS signal (relative antigen binding strength) [2] | Binder
12 | 33300 | 139000 | Ab 358 (antibody, V domains shown) VH: VVQLVESGGDFVQPGGSRKLSCAVSGFTFSSFGMHWVRQAPEKGLEWVAYISSGTTNIYYADTVKGRFTVSRDNPKNSLFLHMTSLRSEDTAMYYCVRSGYYGNSLDYWGQGTPLTVSS VL: DIVMTQSPSSLTVTAGEKVTMSCKSSQSLFNSGNQRNYLTWYQQKPGQPPKLLIYWASTRESGVPDRFTGSGSGTGFTLTISSVQAEDLAFYYCQNVYIYPLTFGLGTKLELR
13 | 27900 | 161000 | Ab 432 (antibody, V domains shown, also called 432-Chim) VH: QIQLQQSGAELARPRASVKLSCKASGYTFTSDVISWVKQRPGQGLEWIGESYLRNGNTYYNENFKGKATLTADKSSSTAYMELRSLTSEDSAVYFCARSYYGNSFAYWGQGTLVTVSA VL: DIVMTQSPSSLTVTAREKVTMNCKSTQSLLNSGNQKNYLTWYQQKPGQPPKLLIYWASTRESGVPDRFTGSGSGTDFTLTISSVQAEDLAVYYCQNAYYYPFTFGGGTKLEIK
14 | 23100 | 173000 | HuAb432-4 (antibody, V domains shown) VH: QVQLVQSGAEVKKPGSSVKLSCKASGYTFTSDVISWVRQAPGQGLEWIGESYLRNGNTYYAQKFQGRATLTADKSTSTAYMELSSLRSEDTAVYYCARSYYGNSFAYWGQGTLVTVSS VL: DIVMTQSPDSLAVSLGERVTMNCKSTQSLLNSGNQKNYLTWYQQKPGQPPKLLIYWASTRESGVPDRFSGSGSGTDFTLTISSVQAEDVAVYYCQNAYYYPFTFGQGTKLEIK
15 | 28600 | 138000 | HuAb360-5 (antibody, V domains shown) VH: QVQLVQSGAEVKKPGASVKMSCKASGYTFTSYLMHWVRQAPGQGLEWIGYINPYNDGTNYAQKFQGRATLTSDKSTSTAYMELSSLRSEDTAVYYCTRGDYWGQGTLVTVSS VL: DIVMTQSPDSLAVSLGERATINCKSSQSLLNSGNQKNYLTWYQQKPGQPPKLLIYWASIRQSGVPDRFSGSGSGTDFTLTISSLQAEDVAVYYCLNDYGFPLTFGQGTKLEIK
16 | 29700 | 140000 | HuAb376-1 (antibody, V domains shown) VH: EVQLLESGGGLVQPGGSLRLSCAASGFTFSSYTMSWVRQAPGKGLEWVATISSGVSYTYYADSVKGRFTISRDNSKNTLYLQMNSLRAEDTAVYYCTRLTKGNAMDYWGQGTLVTVSS VL: DIVMTQSPDSLAVSLGERATINCKSSQSLLNSGNQKNYLTWYQQKPGQPPKLLIYWASTRESGVPDRFSGSGSGTDFTLTISSLQAEDVAVYYCQNDYSYPFTFGQGTKLEIK
17 | 52700 | 131000 | HuAb358-1 (antibody, V domains shown) VH: EVQLVESGGGLVQPGGSLRLSCAVSGFTFSSFGMHWVRQAPGKGLEWVAYISSGTTNIYYADSVKGRFTVSRDNAKNSLYLQMNSLRAEDTAVYYCVRSGYYGNSLDYWGQGTLVTVSS VL: DIVMTQSPDSLAVSLGERATINCKSSQSLFNSGNQRNYLTWYQQKPGQPPKLLIYWASTRESGVPDRFSGSGSGTDFTLTISSLQAEDVAVYYCQNVYIYPLTFGQGTKLEIK
18 | 28300 | 119000 | HuAb376-2 (antibody, V domains shown) VH: EVQLLESGGGLVQPGGSLRLSCAASGFTFSSYTMSWVRQAPGKGLEWVATISSGVSYTYYADSVKGRFTISRDNSKNTLYLQMNSLRAEDTAVYYCTRLTKGNAMDYWGQGTLVTVSS VL: DIVMTQSPDSLAVSLGERVTMNCKSSQSLLNSGNQKNYLTWYQQKPGQPPKLLIYWASTRESGVPDRFSGSGSGTDFTLTISSVQAEDVAVYYCQNDYSYPFTFGQGTKLEIK
19 | 26400 | 120000 | HuAb360-1 (antibody, V domains shown) VH: QVQLVQSGAEVKKPGASVKVSCKASGYTFTSYLMHWVRQAPGQGLEWIGYINPYNDGTNYAQKFQGRVTMTSDTSTSTVYMELSSLRSEDTAVYYCTRGDYWGQGTLVTVSS VL: DIVMTQSPDSLAVSLGERATINCKSSQSLLNSGNQKNYLTWYQQKPGQPPKLLIYWASIRQSGVPDRFSGSGSGTDFTLTISSLQAEDVAVYYCLNDYGFPLTFGQGTKLEIK
